In publication PMC3891507 (2014) one finds Kd data, which are given here for one molecule.

What is called Kd is the constant that tells how readily two partners part at equilibrium. Low readings indicate a tighter complex, high ones a looser complex.

For test [1], the target named is Laminin 111 (Mus musculus, UniProt P19137, LARGE-glycan (control myotubes), Ca2+). Nature of the test: solid-phase binding assay.
In test [2] the target is Laminin 111 (Mus musculus, UniProt P19137, shortened LARGE-glycan (LargeKD myotubes), Ca2+). Nature of the test: solid-phase binding assay.

B1: alpha-dystroglycan (protein)
chain: HWPSEPSEAVRDWKNQLEASMHSVLSDFQEAVPTVVGIPDGTAVVGRSFRVSIPTDLIASSGEIIKVSAAGKEALPSWLHWDPHSHILEGLPLDTDKGVHYISVSAARLGANGSHVPQTSSVFSIEVYPEDHNEPQSVRAASSDPGEVVPSACAADEPVTVLTVILDADLTKMTPKQRIDLLNRMQSFSEVELHNMKLVPVVNNRLFDMSAFMAGPGNAKKVVENGALLSWKLGCSLNQNSVPDIRGVETPAREGAMSAQLGYPVVGWHIANKKPTLPKRLRRQIHATPTPVTAIGPPTTAIQEPPSRIVPTPTSPAIAPPTETMAPPVRDPVPGKPTVTIRTRGAIIQTPTLGPIQPTRVSEAGTTVPGQIRPTLTIPGYVEPTAVITPPTTTTKKPRVSTPKPATPSTDSSTTTTRRPTKKPRTPRPVPRVTTKAPITRLETASPPTRIRTTTSGVPRGGEPNQRPELKNHIDRVDAWVGTYFEVKIPSDTFYDNEDTTTDKLKLTLKLREQQLVGEKSWVQFNSNSQLMYGLPDSSHVGKHEYFMHATDKGGLSAVDAFEIHVHKRPQGDKAPARFKARLAGDPAPVVNDIHKKIALVKKLAFAFGDRNCSSITLQNITRG
Consider B1, for which the Kd in test [1] stood at 2.93 nM; in test [2] it was 4.75 nM.
